Laboratory results taken from US12404345B2, “Humanized antibodies against iRHOM2” (SCIRHOM GMBH, priority 2021, dated 2025).

Each molecule was assayed against T1, human iRhom1 (Homo sapiens, UniProt Q96CC6) (assay: FACS binding specificity on MEF-DKO-hiR1-FL-WT-T7 cells). Conditions: antibody at 3 μg/ml.
T1 construct: expressed in transfected cells; host or cells: immortalized iRhom1/2-/- DKO mouse embryonic fibroblasts, pMSCV retroviral infection
T1 sequence (Q96CC6 1-855): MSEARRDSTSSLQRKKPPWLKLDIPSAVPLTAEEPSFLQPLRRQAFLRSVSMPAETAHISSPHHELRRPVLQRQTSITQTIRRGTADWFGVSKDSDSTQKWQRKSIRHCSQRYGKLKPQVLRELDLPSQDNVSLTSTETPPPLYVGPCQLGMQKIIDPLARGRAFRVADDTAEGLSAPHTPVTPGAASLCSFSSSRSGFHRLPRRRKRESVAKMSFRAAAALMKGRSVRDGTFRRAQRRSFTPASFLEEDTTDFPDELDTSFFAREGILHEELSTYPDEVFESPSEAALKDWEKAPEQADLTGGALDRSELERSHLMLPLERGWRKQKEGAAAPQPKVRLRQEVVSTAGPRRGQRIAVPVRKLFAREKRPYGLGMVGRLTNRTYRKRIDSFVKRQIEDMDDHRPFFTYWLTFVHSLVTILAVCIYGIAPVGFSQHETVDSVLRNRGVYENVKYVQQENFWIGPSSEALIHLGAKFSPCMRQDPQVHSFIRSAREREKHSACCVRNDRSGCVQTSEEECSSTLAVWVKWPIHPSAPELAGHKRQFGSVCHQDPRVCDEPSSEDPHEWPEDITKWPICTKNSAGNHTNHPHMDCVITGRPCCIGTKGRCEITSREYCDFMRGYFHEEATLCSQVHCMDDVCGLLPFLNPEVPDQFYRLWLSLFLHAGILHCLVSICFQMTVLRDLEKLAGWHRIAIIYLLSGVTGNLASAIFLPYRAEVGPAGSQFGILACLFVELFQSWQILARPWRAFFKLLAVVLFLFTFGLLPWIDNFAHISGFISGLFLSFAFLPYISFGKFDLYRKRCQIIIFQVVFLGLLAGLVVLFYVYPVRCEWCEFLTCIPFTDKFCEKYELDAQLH
Method: Due to the sequence homology of the human iRhom2 protein versus its closely related family member human iRhom1 (referring to the NCBI reference sequence NP_078875.4. for human iRhom2 and the NCBI reference sequence NP_071895.3 for human iRhom1, the amino acid sequence identity for the extracellular loops 1, 2, 3 and the C-terminal tail of human iRhom2 versus human iRhom1 are calculated as 67.4%, 100.00%, 80.00% and 63.64%, respectively), the binding specificity of the humanized antibodies 16-B-03, 16-B-05, 16-B-07, 23-B-04, 42-B-02, 42-B-04 of the invention for human iRhom2 versus human iRhom1 was assessed as a next step. For this purpose, iRhom1/2−/− DKO MEFs stably expressing a tagged form of human iRhom1 were generated.
In brief, on day 1, Phoenix-ECO cells (American Type Culture Collection, USA) were seeded on 6-well tissue culture plates (Greiner, Germany) in standard growth medium at 8×10^5 cells per well and kept overnight at 37° C., 5% CO2. On day 2, the medium was replaced by fresh medium supplemented with chloroquine (Sigma-Aldrich, USA) at a final concentration of 25 μM. Applying the calcium phosphate method, cells were transfected with 2 μg/ml of pMSCV-hiR1-FL-WT-T7 (SEQ ID NO 50) encoding human iRhom1 full length wild type C-terminally tagged with 3 consecutive copies of the T7 epitope, and were kept at 37° C., 5% CO2. After 7 hours, the transfections were stopped by replacing cell supernatants with standard growth medium lacking chloroquine, and cells were incubated at 37° C., 5% CO2 to allow virus production overnight. In parallel, immortalized iRhom1/2−/− DKO MEFs as target cells for retroviral infection were seeded on 6-well tissue culture plates (Greiner, Germany) in standard growth medium at 1×10^5 cells per well and were also kept overnight at 37° C., 5% CO2. On day 3, the supernatants of Phoenix-ECO cells releasing pMSCV-hiR1-FL-WT-T7 ecotrophic virus were collected, filtered with 0.45 μm CA filters, and supplemented with 4 μg/ml of polybrene (Sigma-Aldrich, USA). Upon removal of medium from the immortalized iRhom1/2−/− DKO MEFs, these supernatants were added to the target cells for 4 hours at 37° C., 5% CO2 for first infection. Simultaneously, Phoenix-ECO cells were re-incubated with fresh medium, which, after another 4 hours, was filtered and used for the second infection of the respective target cell populations, again in the presence of 4 μg/ml of polybrene. Likewise, a third, but overnight infection cycle was performed. On day 4, virus containing cell supernatants were replaced by fresh standard growth medium. From day 5 onwards, cells were grown in the presence of 2 mg/ml of geneticin (G418, Thermo Fisher Scientific, USA) for the selection of immortalized MEF-DKO-hiR1-FL-WT-T7 cells stably expressing human iRhom1 full length wild type C-terminally tagged with 3 consecutive copies of the T7 epitope. Upon propagation, cells were stocked for future usage.
In brief, in addition to immortalized MEF-DKO-EV control cells and MEF-DKO-hiR2-FL-WT-T7 cells (as already described in example 3), MEF-DKO-hiR1-FL-WT-T7 cells were harvested with 10 mM EDTA in PBS, washed and resuspended in FACS buffer (PBS, 3% FBS, 0.05% sodium azide), and seeded in Nunc U-bottom 96-well plates (Thermo Fisher Scientific, USA) at approximately 3×10^5 cells per well. To pellet cells and remove supernatants, the plates were centrifuged at 1,500 rpm and 4° C. for 3 minutes. For primary staining, cells were resuspended in 100 μl per well of either FACS buffer alone (controls), mouse monoclonal anti-T7 IgG (Merck Millipore, USA) at 3 μg/ml FACS buffer or the humanized antibodies 16-B-03, 16-B-05, 16-B-07, 23-B-04, 42-B-02, 42-B-04 of the invention also at 3 μg/ml FACS buffer and incubated on ice for 1 hour. Afterwards, plates were centrifuged at 1,500 rpm and 4° C. for 3 minutes and washed twice with 200 μl per well of FACS buffer. […]

Molecule | binding to human iRhom1 on MEF-DKO-hiR1-FL-WT-T7 cells
23-B-04: humanized antibody binding human iRhom2; HCVD SEQ ID NO 25, LCVD SEQ ID NO 29 (antibody, V domains shown, antibody sequences) VH: QVTLRESGPALVKPTQTLTLTCTFSGFSLSTFGMGVGWIRQPPGKALEWLAHIWWDDEKYYNSALKSRLTISKDTSKNQVVLTITNMDPVDTATYYCARISNYGSNYWYFNVWGQGTLVTVSS VL: AIQLTQSPSSLSASVGDRVTITCRASSSVSYMYWYQQKPGKAPKVLIYDTSNLASGVPSRFSGSGSGTDYTLTISSLQPEDFATYYCQQWNAYPLTFGQGTKLEIK | none of these humanized antibodies of the invention recognizes human iRhom1
42-B-02: humanized antibody binding human iRhom2; HCVD SEQ ID NO 33, LCVD SEQ ID NO 37 (antibody, V domains shown, antibody sequences) VH: QVTLRESGPALVKPTQTLTLTCTFSGFSLSTFGRGVGWIRQPPGKALEWLAHIWWDDEKYYNSALKSRLTISKDTSKNQVVLTITNMDPVDTATYYCARIQNYGSNYWYFDVWGQGTLVTVSS VL: AIQLTQSPSSLSASVGDRVTITCRASSRISYMFWYQQKPGKAPKVLIYDTSNLASGVPSRFSGSGSGTDYTLTISSLQPEDFATYYCQQWNSYPLTFGQGTKLEIK | none of these humanized antibodies of the invention recognizes human iRhom1
42-B-04: humanized antibody binding human iRhom2; HCVD SEQ ID NO 41, LCVD SEQ ID NO 45 (antibody, V domains shown, antibody sequences) VH: QVTLRESGPALVKPTQTLTLTCTFSGFSLSTFGRGVGWIRQPPGKALEWLAHIWWDDEKYYNSALKSRLTISKDTSKNQVVLTITNMDPVDTATYYCARIQNYGSNYWYFDVWGQGTLVTVSS VL: AIQLTQSPSSLSASVGDRVTITCRASSRISYMFWYQQKPGKAPKVLIYDTSNLASGVPSRFSGSGSGTDYTLTISSLQPEDFATYYCQQWNAYPLTFGQGTKLEIK | none of these humanized antibodies of the invention recognizes human iRhom1
16-B-03: humanized antibody binding human iRhom2; HCVD SEQ ID NO 1, LCVD SEQ ID NO 5 (antibody, V domains shown, antibody sequences) VH: QVTLRESGPALVKPTQTLTLTCTFSGFSLSTFALGVGWIRQPPGKALEWLAHIWWDDDKYYNPALKSRLTISKDTSKNQVVLTITNMDPVDTATYYCARITTYYYGMDYWGQGTLVTVSS VL: EIVMTQSPDFQSVTPKEKVTITCRASQSIGNHLHWYQQKPDASPKLLIKYASQSISGVPSRFSGSGSGTDFTLTINSLEAEDAATYFCQQSYQWPLTFGQGTKLEIK | no significant binding
16-B-05: humanized antibody binding human iRhom2; HCVD SEQ ID NO 9, LCVD SEQ ID NO 13 (antibody, V domains shown, antibody sequences) VH: QVTLRESGPALVKPTQTLTLTCTFSGFSLSTFALGVGWIRQPPGKALEWLAHIWWDEDKYYNPALKSRLTISKDTSKNQVVLTITNMDPVDTATYYCARITTYYYGMDYWGQGTLVTVSS VL: EIVMTQSPDFQSVTPKEKVTITCRASQSIGNHLHWYQQKPDASPKLLIKYASQSISGVPSRFSGSGSGTDFTLTINSLEAEDAATYFCQQSYNWPLTFGQGTKLEIK | none of these humanized antibodies of the invention recognizes human iRhom1
16-B-07: humanized antibody binding human iRhom2; HCVD SEQ ID NO 17, LCVD SEQ ID NO 21 (antibody, V domains shown, antibody sequences) VH: QVTLRESGPALVKPTQTLTLTCTFSGFSLSTFALGVGWIRQPPGKALEWLAHIWWDEDKYYNPALKSRLTISKDTSKNQVVLTITNMDPVDTATYYCARITTYYYGMDYWGQGTLVTVSS VL: EIVMTQSPDFQSVTPKEKVTITCRASQSIGNHLHWYQQKPDASPKLLIKYASQSISGVPSRFSGSGSGTDFTLTINSLEAEDAATYFCQQSYQWPLTFGQGTKLEIK | none of these humanized antibodies of the invention recognizes human iRhom1
